In patent publication US12565517B2, “Cyclic peptide having CTLA-4 inhibitory activity and use thereof” (GeneFrontier Corporation, priority 2019, dated 2026):
Blank lines part the entries; values can stand above or below the molecule they belong to. Where a SMILES comes first, the peptide text is derived from it. Bridges are numbered along the chain shown (N, C = ends). Where no end group is shown, it is not given here. The star is where a group is joined. Biotin = O=C1N[C@H]2[C@H](CS[C@H]2CCCCC(=O)*)N1; PEG4 = NCCOCCOCCOCCOCCC(=O)O

Experiments:
[1] = target: T1, CTLA-4 (Homo sapiens, UniProt P16410); assay: Affinity measurement of CTLA-4 binding clones after Affinity Maturation (EC50 by ELISA, Table 6); details: for CTLA-4 affinity improved over the original clone: EC50 by ELISA, MBP fusion cyclic peptides; for EC50: N-terminal MBP fusion protein of the CTLA-4 binding clone, EC50 calculated from ELISA binding curve
T1 sequence (P16410 36-223): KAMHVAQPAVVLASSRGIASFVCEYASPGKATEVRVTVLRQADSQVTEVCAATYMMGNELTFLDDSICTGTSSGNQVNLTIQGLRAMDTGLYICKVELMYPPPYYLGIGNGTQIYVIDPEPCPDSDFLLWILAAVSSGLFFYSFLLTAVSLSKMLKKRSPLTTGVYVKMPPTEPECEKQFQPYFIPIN
Description: For each of the CTLA-4 binding clones obtained by Affinity Maturation, purified N-terminal MBP fusion protein solution (400 μg/mL) was prepared and samples serially 2-fold diluted with PBS were prepared. CTLA-4 was immobilized overnight at 4° C. in 384-well plates at 100 ng/20 μL per well, and each well was washed twice with 100 μL/well of TBST, added with 100 μL/well of 5% skim milk solution (TBST) for blocking for 1 hour at room temperature, and washed twice with 100 μL/well of TBST to obtain antigen-immobilized plates. 20 μL/well of serially-diluted N-terminal MBP fusion protein solution was added to the antigen-immobilized plates and gently stirred at room temperature using a plate mixer. After 1 hour, the plates were washed 5 times with 100 μL/well of TBST, 20 μL/well of anti-FLAG M2-HRP conjugate (1:2000 dilution, Sigma) was added and gently stirred on a plate mixer for 1 hour at room temperature. Further, the plates were washed 5 times with 100 μL/well of TBST, and binding of N-terminal MBP fusion proteins to the antigen was detected by 20 μL/well of chromogenic substrate (0.4 mg/mL 3,3′,5,5′-Tetramethyl-benzidine, 0.01% hydrogen peroxide). After 15 minutes of reaction at room temperature, the reaction was stopped with 20 μL/well of 2N HCl, and absorbance at 450 nm was measured using a plate reader (infinite F200: TECAN). The graph was plotted with the vertical axis as the absorbance of ELISA and the horizontal axis as the concentration of N-terminal MBP fusion protein of the CTLA4-binding clones (FIG. 5), and the EC50 was calculated from the obtained binding curve (Table 6).

[2] = target: SA (Streptomyces avidinii, UniProt P22629); assay: ELISA background signal of MBP-fused cyclic peptides on SA wells (Table 5); format: binding; details: MBP-fused cyclic peptide
Description: (§1) After each round of Affinity Maturation, the cyclic peptide genes were recovered and subcloned into pET-Mal vector (FIG. 2) in the same manner as described above to perform base sequence analysis. For the 94 single colonies analyzed for sequence, E. coli transformants were inoculated into 100 μL of 2×YT medium containing ampicillin (final concentration 50 μg/mL), incubated at 37° C. for 3-5 hours (OD600=0.5-0.8), then added with IPTG (final concentration 0.5 mM) and incubated at 25° C. overnight. 10 μL of E. coli cultured medium was added with 90 μL of PBS and 40 μL of lysis reagent (20 μL BugBuster Protein Extraction Reagent (Novagen), 20 μL Lysozyme solution 2.5 mg/mL) to lyse E. coli cells for 1 hour at room temperature. The cell lysate was added with 40 μL of 12.5% skim milk solution (TBST) and blocked for 1 hour at room temperature. In parallel, antigen protein was immobilized overnight at 4° C. in 384-well plates at 100 ng/20 μL per well, and each well was washed twice with 100 μL/well of TBST, added with 100 μL/well of 5% skim milk solution (TBST) for blocking for 1 hour at room temperature, and washed twice with 100 μL/well of TBST to obtain antigen-immobilized plates. 20 μL/well of blocking-treated E. coli extract was added to the antigen-immobilized plates and gently stirred at room temperature using a plate mixer. After 1 hour, the plates were washed 5 times with 100 μL/well of TBST, 20 μL/well of anti-FLAG M2-HRP conjugate (1:2000 dilution, Sigma) was added and gently stirred on a plate mixer for 1 hour at room temperature. The plates were washed 5 times with 100 μL/well of TBST, and binding of cyclic peptides to the antigen was detected by 20 μL/well of chromogenic substrate (0.4 mg/mL 3,3′,5,5′-Tetramethyl-benzidine, 0.01% hydrogen peroxide). After 15 minutes of reaction at room temperature, the reaction was stopped with 20 μL/well of 2N HCl, and absorbance at 450 nm was measured using a plate reader (infinite F200: TECAN) (Table 5).
An Error-Prone Library was prepared based on H12SSI-Ctla4-3-02, and Affinity Maturation selection experiments were performed. […]

[3] = target: T2, CTLA-4 (Homo sapiens, UniProt P16410); assay: Evaluation of binding after Affinity Maturation selection by ELISA (S/N ratio, Table 5); details: for ELISA MBP-fusion Orencia (absorbance at 450 nm): MBP-fused cyclic peptide, Orencia wells; for ELISA MBP-fusion S/N(SA): ratio of Orencia signal to SA signal, binding = S/N not less than 2
T2 construct: IgG1 Fc (own knowledge: Orencia = abatacept, CTLA4-Ig)
Description: The basic operation of ribosome display was performed in the same manner as described above. Detailed experimental conditions for Affinity Maturation are indicated below. 2 μL of Nanolink streptavidin magnetic beads (SoluLink) were used as magnetic beads to immobilize the antigen, and 1 mL of CTLA-4 protein solution (1 μM) was used as a wash solution. The amount of biotinylated CTLA-4 immobilized on the magnetic beads was 10 pmol in the 1st round, 2 pmol in the 2nd round, and 1 pmol in the 3rd round, respectively. The washing period was 2 hours for the 1st round, 19 hours for the 2nd round, and 67 hours for the 3rd round. The number of wash cycle was one time (2 hours) in the 1st round, two times (about every 10 hours) in the […], and six times (about every 10 hours) in the 3rd round. After each round of RT-PCR, Error-Prone PCR was performed in the same manner as described above.
as §1
T2 sequence (P16410 with tags, fused parts or gaps limits assumed): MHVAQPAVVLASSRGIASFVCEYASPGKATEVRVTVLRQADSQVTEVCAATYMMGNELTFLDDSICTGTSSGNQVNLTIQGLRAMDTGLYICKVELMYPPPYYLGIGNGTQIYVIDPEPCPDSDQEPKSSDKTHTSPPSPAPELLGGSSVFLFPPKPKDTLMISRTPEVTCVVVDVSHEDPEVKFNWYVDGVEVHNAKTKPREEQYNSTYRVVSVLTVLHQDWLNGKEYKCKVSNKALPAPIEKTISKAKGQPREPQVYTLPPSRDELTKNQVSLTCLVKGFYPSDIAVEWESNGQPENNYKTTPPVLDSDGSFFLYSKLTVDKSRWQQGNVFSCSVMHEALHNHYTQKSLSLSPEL

[4] = target: T1, CTLA-4; assay: ELISA binding of clones after Affinity Maturation with random library (Tables 10, 11)
[5] = target: T1, CTLA-4; assay: Affinity measurement of synthetic biotinylated peptides by BLItz system (peptide on SA sensor chip); format: binding
Description: Affinity for CTLA-4 was measured using the BLItz system (forte Bio). All operations were performed according to the instruction manual of the BLItz system. The biotinylated peptides were immobilized on the SA sensor chip via streptavidin.

[6] = target: T3, binding of CTLA-4 to CD80 (Homo sapiens, UniProt P16410); assay: CTLA4:B7-1[Biotinylated] Inhibitor Screening Assay Kit (IC50 measurement); format: biochemical
T3 construct: purchased BPS Biosciences
T3 sequence (P16410 37-162 limits assumed): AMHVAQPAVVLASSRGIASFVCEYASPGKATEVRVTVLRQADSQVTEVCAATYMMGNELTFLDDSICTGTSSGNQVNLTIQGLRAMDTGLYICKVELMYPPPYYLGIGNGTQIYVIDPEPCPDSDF
From the text: IC50 can be determined by using, for example, competitive ELISA, surface plasmon resonance (BIAcore (trademark)) analysis or the like. IC50 value for the cyclic peptide of the present invention with respect to its inhibition of binding between human CTLA-4 and human CD80 is preferably measured by CTLA4:B7-1 [Biotinylated] Inhibitor Screening Assay Kit (BPS Bioscience) according to the Example below.
Among the clones obtained in the Affinity Maturation selection experiment, clone #19 ([…]) (SEQ ID NO: 22), which has high affinity to CTLA-4 in EC50 measurement, was measured for its activity to inhibit binding of CTLA-4 to CD80. The measurement of inhibitory activity was performed using the CTLA4:B7-1[Biotinylated] Inhibitor Screening Assay Kit (BPS Biosciences). The experiment was performed according to the standard protocol attached to the kit.
In addition, peptides with glycine added to the N-terminus (Gly-clone #19: […] (SEQ ID NO: 26)/Gly-H12SSI-Ctla4-3-02: […] (SEQ ID NO: 25)) were chemically synthesized for the measurement of inhibitory activity. Inhibitory activity was measured using the CTLA4:B7-1 [Biotinylated] Inhibitor Screening Assay Kit (BPS Biosciences) as described above.

[7] = CTLA-4 binding ELISA of clones after Affinity Maturation from random (NNS) library, signal/noise ratio, clones of 4th or 5th round
[8] = synthetic Biotin-PEG4-Lys peptide immobilized, BLItz

Molecule: CLHPFLPIVSHHFCGR (cysteine pairing not given here; also: MBP fusion) [#10]
- CTLA-4 affinity improved over the original clone [1]: about 50 fold
- EC50 [1]: 82 nM
- ELISA MBP-fusion SA (absorbance at 450 nm) [2]: 0.0617
- ELISA MBP-fusion Orencia (absorbance at 450 nm) [3]: 1.1444
- ELISA MBP-fusion S/N(SA) [3]: 18.5

Molecule: C4m#19-5th4w-NN6-72 (GGCWHPWLPIVSVHFCGC; C4m#19-5th4w-NN6-72)
- ELISA S/N(SA) [4, 7]: 4.6

Molecule: C4m#19-5th4w-NN6-93 (GGCCHPWLPIVSTHFCGL; C4m#19-5th4w-NN6-93)
- ELISA S/N(SA) [4, 7]: 28.9

Molecule: C4m3127-4th-NNS6-83 (GGCRHPFLPIFSKHFCEL; C4m3127-4th-NNS6-83) [Clone C4m3127-4th-NNS6-83]
- ELISA S/N(SA) [4, 7]: 20.7

Molecule: C4m3127-4th-NNS6-95 (GGCWHPVLPIRSGHFCSR; C4m3127-4th-NNS6-95) [Clone C4m3127-4th-NNS6-95]
- ELISA S/N(SA) ([4]; S/N ratio of CTLA-4 binding in ELISA, clones from 4th or 5th round of Affinity Maturation from random (NNS) library): 3.4

Molecule: C4m3127-4th-NNS6-79 (GGCLHPFLPIRSVHFCLR; C4m3127-4th-NNS6-79) [Clone C4m3127-4th-NNS6-79]
- ELISA S/N(SA) [4, 7]: 12.8

Molecule: C4m3127-4th-NNS6-70 (GGCSHPYLPIHSRHFCLS; C4m3127-4th-NNS6-70) [Clone C4m3127-4th-NNS6-70]
- ELISA S/N(SA) [4, 7]: 4.6

Molecule: CSCC[C@@H]1NC(=O)[C@@H](NC(=O)[C@H](CCCCN)NC(=O)CCOCCOCCOCCOCCNC(=O)CCCC[C@@H]2SC[C@@H]3NC(=O)N[C@@H]32)CSSC[C@@H](C(=O)O)NC(=O)[C@H](Cc2ccccc2)NC(=O)[C@H](Cc2c[nH]cn2)NC(=O)[C@H](Cc2c[nH]cn2)NC(=O)[C@H](CO)NC(=O)[C@H](C(C)C)NC(=O)[C@H](C(C)C)NC(=O)[C@H](CC(C)C)NC(=O)[C@H](CC(C)C)NC(=O)[C@H](Cc2ccccc2)NC(=O)[C@@H]2CCCN2C(=O)[C@H](Cc2c[nH]cn2)NC1=O [biotinylated H12SSI-Ctla4-3-02] ({Biotin-PEG4}-KCMHPFLLVVSHHFC-OH; disulfide 2-15; C-terminus assumed)
- kon ([5]; read-out: ka): 115000 M⁻¹ s⁻¹
- kd [5, 8]: 0.022 s⁻¹

Molecule: C4m3127-4th-NNS6-72 (GGCVHPYLPISSIHFCSM; C4m3127-4th-NNS6-72) [Clone C4m3127-4th-NNS6-72]
- ELISA S/N(SA) [4, 7]: 20.0

Molecule: CMHPFLPIVSHHFCER [#19]
- CTLA-4 affinity improved over the original clone [1]: about 50 fold
- EC50 [1]: 75 nM
- IC50 ([6]; MBP fusion protein): 1360 nM
- IC50 ([6]; synthesized peptide with N-terminal glycine): 11500 nM
- ELISA MBP-fusion SA (absorbance at 450 nm) [2]: 0.0591
- ELISA MBP-fusion Orencia (absorbance at 450 nm) [3]: 1.0658
- ELISA MBP-fusion S/N(SA) [3]: 18.0
- ka [5, 8]: 208000 M⁻¹ s⁻¹
- kd [5, 8]: 0.0128 s⁻¹
- Kd ([5]; synthetic Biotin-PEG4-Lys peptide immobilized, BLItz, unit inferred): 61.8 nM

Molecule: C4m#19-5th2w-NNS6-12 (GGCWHPYLPIRSVHFCGR; C4m#19-5th2w-NNS6-12)
- ELISA S/N(SA) [4, 7]: 20.4

Molecule: C4m#19-5th2w-NNS6-79 (GGCRHPFLPIVSRHFCVA; C4m#19-5th2w-NNS6-79)
- ELISA S/N(SA) [4, 7]: 9.2

Results, then the molecule that gave them:

- ELISA S/N(SA) [4, 7]: 13.5
Molecule: C4m3127-4th-NNS6-48 (GGCFHPWLPIASWHFCGR; C4m3127-4th-NNS6-48) [Clone C4m3127-4th-NNS6-48]

- ELISA S/N(SA) [4, 7]: 37.5
Molecule: C4m#19-5th4w-NN6-21 (GGCWHPWLPILSPHFCPR; C4m#19-5th4w-NN6-21)

- ELISA S/N(SA) [4, 7]: 38.9
Molecule: C4m#19-5th4w-NN6-25 (GGCLHPVLPIRSRHFCPV; C4m#19-5th4w-NN6-25)

- ELISA S/N(SA) [4, 7]: 27.6
Molecule: C4m#19-5th4w-NN6-24 (GGCWHPWLPIYSHHFCPI; C4m#19-5th4w-NN6-24)

- ELISA S/N(SA) [4, 7]: 16.1
Molecule: C4m#19-5th4w-NN6-14 (GGCWHPFLPIRSVHFCCR; C4m#19-5th4w-NN6-14)

- ELISA S/N(SA) [4, 7]: 21.4
Molecule: C4m#19-5th4w-NN6-87 (GGCLHPVLPIRSFHFCWR; C4m#19-5th4w-NN6-87)

- ELISA S/N(SA) [4, 7]: 24.9
Molecule: C4m#19-5th4w-NN6-69-3 (GGCLHPWLPIVSVHFCAR; C4m#19-5th4w-NN6-69-3)

- ELISA S/N(SA) [4, 7]: 14.7
Molecule: C4m#19-6th4w-NN6-5-3 (GGCWHPFLPILSLHFCGW; left off: large carriers; small tags and cut ends)
